Drawing on US11780907B2, “Human antibodies to influenza hemagglutinin” (Regeneron Pharmaceuticals, Inc., priority 2018, dated 2023), this text covers EC50 for 1 molecule.

For assay [1], the system named is A/Wisconsin/67/2005 (H3N2)-overexpressing 3T3 cells. To be noted: read-out: EC50 FcγRIIIA activation (ADCC-Glo reporter bioassay).
Assay [2] shares this test system. The settings on record: read-out: EC50 ADCC with human donor PBMCs.

Where two headings read alike, the source gives them in different places.

B1: H1H14612N2: fully human anti-influenza A group 2 HA monoclonal antibody, HCVR/LCVR SEQ ID NOs: 18/26 (antibody, V domains shown)
VH: EVQLVESGGGLVKPGGSLRLSCAASGFSFSGFSMNWVRQAPGKGLEWVSSISTSGNYMYYADSVKGRFTISRDNAKKSFSLQMNSLRAEDSAIYYCARGGGYNWNLFDYWGQGSLVTVSS
VL: EIVLTQSPGTLSLSPGERATLSCRASQSLNSNYLAWYQQKPGQAPRLLIYGASSRATGIPDRFSGSGSGADFTLTISRLESEDFAVYYCQQYGNSPLTFGGGTKVEIK
In the case of B1, the EC50 in assay [1] is 0.688 nM; in assay [2], 0.176 nM.
